Assay results taken from the DeepSol protein solubility set.

Assay: soluble on expression in E. coli; label from the status in PepcDB or PDB records

Sequence: MGSDKIHHHHHHMARMFYDEMHDAGGECRSHYREFARWLADTPEEQLLQRRREADLLFHRAGITFTLYGDEQGTERLIPFDTIPRSIPAAEWAHIEAGCIQRVQALNLFLADLYHEQRILKAGVIPAEQVLANDQYQLAMQGLDLPGNVYAHIAGVDLVRDGSGNYYVLEDNLRTPSGVSYMLENRKMMMRLFPELFVRQRVAPIDHYPDLLLDTLKRASDVESPSVVVLTPGRFNSAYFEHAFLAREMGVELVEGADLFVRDERVYMRTTAGPQPVDVIYRRIDDAFLDPLAFNPDSLLGVPGLLAAYRAGNLVLANAIGTGVADDKSIYPYVPDMIRFYLGEDPLLHNVPTWQCRKPKELAHVLAHLPELVVKETQGSGGYGMLVGPAASREEIELFRERLKARPEAYIAQPTLSLSTCPTFVESGVAPRHIDLRPFVLSAPDRVRLVPGGLTRVALREGSLVVNSSQGGGTKDTWVVEE
- soluble on expression in E. coli: not soluble

Sequence: MLPLEPYLTQTSAVPQMSHFMCHSPTHKPQGLLPWAPFHQASVSLYPISPWPSESVCPPTCPGGASCWFPAGNAWDRVELGFLGFGAGGVSIAVPGFPLSCGQGCCAGGWLGHGARFPAKLRAFPQVIRRGWLTINNISLMKGGSKEYWFVLTAESLSWYKDEEEKEKKYMLPLDNLKIRDVEKGFMSNKHVFAIFNTEQRNVYKDLRQIELACDSQEDVDSWKASFLRAGVYPEKDQAENEDGAQENTFSMDPQLERQVETIRNLVDSYVAIINKSIRDLMPKTIMHLMINNTKAFIHHELLAYLYSSADQSSLMEESADQAQRRDDMLRMYHALKEALNIIGDISTSTVSTPVPPPVDDTWLQSASSHSPTPQRRPVSSIHPPGRPPAVRGPTPGPPLIPVPVGAAASFSAPPIPSRPGPQSVFANSDLFPAPPQIPSRPVRIPPGIPPGVPRRPPAAPSRPTIIRPAEPSLLD
- soluble on expression in E. coli: soluble

Sequence: MTRNPVVAGMFYPAEYHELLEMIEYCYLNPRGPRELPSKRGKYTKPLGIVSPHAGYIYSGPVAAHGYKKISENISGEITAIILGPNHTGLGSGIATMKGTWKTPFGDMEIDNEFADRLWKECDILDMDENSHLREHSIEVQLPFLKHLEDLNIAKFKFVPISMMMQDYESCIDVGYVIAKVARELNRKIVIIASTDFSHYEPQEQASKKDAVVIKDILELNDEEIFTDVVTHTISMCGYGPVIAMVKAMKDLGARTSYLLYYSTSGDVTKDYSEVVGYASLLIKLEHHHHHH
- soluble on expression in E. coli: soluble

Sequence: MTAFFCTLQDDRIISLDWQEGADIDLIYLAPGRTLPSQKGAVSHVLQGKDLRKGWSIDHGELTVGVSSLAVAVKNANGDVLGAVAVAGLSASVESKIDTIRDTLKETACAIA
- soluble on expression in E. coli: not soluble

Sequence: MTLNPRQSALVELVRTQGSATIEALARHFDVTLQTVRRDVNLLSEAGMLSRFHGGVRIESSTIENIAYRKRQGLHAEGKRRIAEAVARAVPDGCSLLINIGTTTEAIARALLRHRGLRVITNNLHVADILSDNPDCEVIVAGGVVRSRDRGIVGEATLDFIRQFKVDIGLIGISGIEADGTLRDYDFREVRVARAIIEQSREVWLAADSSKFQRQAMVELVHVSRIHRFFTDTQPQEPLAQVLQDAGVRCDVAAQSAGAAAALEHHHHHH
- soluble on expression in E. coli: not soluble

Sequence: MSLATLKDVALHAGVSVTTVSNFINNKKKLKDDTRHNILEAIQATGYRHNALAASLKKSSASLRSIGIISIVDQNPFFSELFFKLENECFKQDFTVISCFRHKDKEDLHTYINLMSGRVDGIILISLKRDKIDNVIKHIHAVPVVAIAFDIGDVMSLCGGTEFNLHNETGGYIAGRFLLSKGHKKIACVTGPKALKTTVNRIAGLKKALADFNLPEDSVDFIEGNYTYQSGVDAMYQLFSSVALPTAIICHNDLMAIGVQNAANELGLKIPRELSVIGYDDIEMSKLSFPSLTTVRIPLDDIACQALEGLSMKMATPGSKAIISATPSLVVRGSVSKGIITITTDPNSSSVDKLAAALEHHHHHH
- soluble on expression in E. coli: soluble

Sequence: MAMHPRAGQKARQEDLHNIPALVANYYLLQPEAGNTAHKVEFGTSGHRGTADKTTFNEHHILAIAQAVADVRHEHGVTGPIFIGKDTHALSEPAFSSVLEVLIANGIEVIVQENNGYTPTPGISHAILTYNLKHADKADGIVITPSHNPPQDGGIKYNPPHGGPAEGELTQAIEDRANAYISQQLAGVKRMPIALAKQSELLKQVDLVKPYVDDLVNVVDMAAIQKAKLKIGVDPLGGSGIDYWRQIGNAYQLDLTLVSEAIDPSFQFMSLDKDGVIRMDCSSPYAMAGLLALKDEYDLAFGNDPDYDRHGIVTPKGLMNPNHFLAVCIDYLYRHRQGWAGHVAVGKTLVSSAMIDKVVADLGRELCEVPVGFKWFVDGLYSGRFGFGGEESAGASFLRQDGTPWSTDKDGIILCLLAAEITAVTGKNPQQYYDELAAKHGDFYYSRIQAVANGPQKNVLKKLSPEMVSAQTLAGDAITARLTHAPGNGAAIGGLKVTTDYGWFAARPSGTEDIYKIYCESFKGAEHLKQIESEAQQIVNQVFKDAGL
- soluble on expression in E. coli: not soluble

Sequence: MGSAEQACGCKGARFCALCETTERVKKLRVVEDKHVNYKVFIYDHIRQIAIPTTNLNSQSSLEDIIDESTSCQSVSTDGSIEIDGLTLIHNFLSESEESKILNMIDTVEWAQSQSGRRKQDYGPKVNFKHKKVKTDTFVGMPEYADMLLNKMSEYDVKKLGNYQPFEMCNLEYEEVKKSAIEMHQDDMWIWGNRLIRYEFLFKKVLFN
- soluble on expression in E. coli: soluble

Sequence: MGSDKIHHHHHHMRHIAHYCVAHPAGSMVVPGTRKKRELLPSAAPWRLSGVFVSLDEIRKDWTTLGAAAPLWAVCVDPAKRHGGWDDDEFLASGRAEIDAAMARLAELGIAHGRERALDFGCGAGRLSNALAAYFDRVVGVDISAPMLAEARRLDRSGGRIDFLLNDAPDLKIFPDASFDLVYTDLVLQHLPPPLARGYLAEFARVLRPGGALVAGMPATERRTVKGLVFRYAPHRVIRFIQRVLLGYPAPMRMHTMPPEQMRELLASHGVRVVSAEEYAGDDHGTHWVHMRYYARKDPGAAL
- soluble on expression in E. coli: not soluble

Sequence: MGSDKIHHHHHHMFSPTKLKEKRESQGLSQSQLASSLGISRVSYFNWESGKTKPNQNNLSKLSQILTVDPCYFESEYEIVETYLKLTEKNQKATLHYATELLNKQNEKVVDIPERFAYKVYEKLSAGTGTAYFDDGNYDTVYFNHQFDYDFASWVFGNSMEPTYENGSVALIKQTGFDYDGAIYAIDWDGQTYIKKVYREENGLRLVSLNRNYSDKFAPYDENPRIIGKIVGNFMPLED
- soluble on expression in E. coli: not soluble

Sequence: MSLKQAIFVMMDQYADWEGAHLSSQLNQMTDWTVKTASNQPEVTSIGGWTTRVDYQISELNPEMTLLVLIGGNAWQHDDPRLTALIQQCLQRKVIVGAICGAVDYLARNGLLTGYRHTGNAQFSWQSFPKYQNPTDFELQQVVVDRQLVTANGTAALSFTSAVLKASGQLTIAAKQALDLQQLGYYDNTETHLNEGHHHHHH
- soluble on expression in E. coli: not soluble

Sequence: MNNHFKCIGIVGHPRHPTALTTHEMLYRWLCDQGYEVIVEQQIAHELQLKNVPTGTLAEIGQQADLAVVVGGDGNMLGAARTLARYDINVIGINRGNLGFLTDLDPDNALQQLSDVLEGRYISEKRFLLEAQVCQQDRQKRISTAINEVVLHPGKVAHMIEFEVYIDETFAFSQRSDGLIISTPTGSTAYSLSAGGPILTPSLDAITLVPMFPHTLSARPLVINSSSTIRLRFSHRRSDLEISCDSQIALPIQEGEDVLIRRCDYHLNLIHPKDYSYFNTLSTKLGWSKKLFMAGDPLEHHHHHH
- soluble on expression in E. coli: not soluble

Sequence: MNGAQWVVHALRAQGVKTVFGYPGGAIMPVYDALYDGGVEHLLCRHEQGAAMAAIGYARSTGKTGVCIATSGPGATNLITGLADALLDSVPVVAITGQVSAPFIGTDAFQEVDVLGLSLACTKHSFLVQSLEELPRIMAEAFEVANAGRPGPVLVDIPKDIQLASGELEPWFTTVANEATFPQADVEQARQMLEQAKKPMLYVGGGVGMAQAVPALRKFIAVTQMPVTCTLKGLGAVEADYPYYLGMLGMHGTKAANFAVQECDLLIAVGARFDDRVTGKLNTFAPNASVIHMDIDPAEMNKLRQAHVALQGDLNSLLPALQQPLKIDAWRQSCAELRAEHAWRYDHPGETIYAPLLLKQLSERKPADSVVTTDVGQHQMWSAQHMTYTRPENFITSSGLGTMGFGLPAAVGAQVARPNDTVICISGDGSFMMNVQELGTVKRKQLPLKIVLLDNQRLGMVRQWQQLFFQERYSETTLTDNPDFLMLASAFGIPGQHITRKDQVEAALDTMLASEGPYLLHVSIDELENVWPLVPPGASNSEMLEKLS
- soluble on expression in E. coli: not soluble

Sequence: MSLLEQLDKNIAASGGLIVSCQPVPGSPLDKPEIVAAMALAAEQAGAVAVRIEGIDNLRMTRSLVSVPIIGIIKRDLDESPVRITPFLDDVDALAQAGAAIIAVDGTARQRPVAVEALLARIHHHHLLAMADCSSVDDGLACQRLGADIIGTTMSGYTTPDTPEEPDLPLVKALHDAGCRVIAEGRYNSPALAAEAIRYGAWAVTVGSAITRLEHICGWYNDALKKAAS
- soluble on expression in E. coli: not soluble

Sequence: MTIDDSNRLLMDVDQFDFLDDGTAQLSNNKTDEEEQLYKRDPVSGAILVPMTVNDQPIEKNGDKMPLKFKLGPLSYQNMAFITAKDKYKLYPVRIPRLDTSKEFSAYVSGLFEIYRDLGDDRVFNVPTIGVVNSNFAKEHNATVNLAMEAILNELEVFIGRVKDQDGRVNRFYELEESLTVLNCLRTMYFILDGQDVEENRSEFIESLLNWINRSDGEPDEEYIEQVFSVKDSTAGKKVFETQYFWKLLNQLVLRGLLSQAIGCIERSDLLPYLSDTCAVSFDAVSDSIELLKQYPKDSSSTFREWKNLVLKLSQAFGSSATDISGELRDYIEDFLLVIGGNQRKILQYSRTWYESFCGFLLYYIPSLELSAEYLQMSLEANVVDITNDWEQPCVDIISGKIHSILPVMESLDSCTAAFTAMICEAKGLIENIFEGEKNSDDYSNEDNEMLEDLFSYRNGMASYMLNSFAFELCSLGDKELWPVAIGLIALSATGTRSAKKMVIAELLPHYPFVTNDDIEWMLSICVEWRLPEIAKEIYTTLGNQMLSAHNIIESIANFSRAGKYELVKS
- soluble on expression in E. coli: soluble

Sequence: MKKILVGIPNYNNAAYIVDTIESVLKQSYSGVDVVVFDNASTDDSVEIIENTFLNNPNVLLKKSASNVGPTMNHNRCLEYAIDNEYDYLKVLSSDDVLLPNIIQEQFELLESEPRGAFATCNMIVTDDKLTKIKDHDFLGSNTDGNAVIKKCASHSANYIGGPSNGLLRVSCIGATRFSPEYKWLSDLKFYCDLLANRPFINTGTNGFFYRRHDNTDSSHVSKIKNLQRKESIRFSGEYGGNFLTKIKIYLRDIKSRLLLEHHHHHH
- soluble on expression in E. coli: not soluble

Sequence: MFREESRSVPVEEGEVYDVTIQDIARQGDGIARIEGFVIFVPGTKVGDEVRIKVERVLPKFAFASVVELEHHHHHH
- soluble on expression in E. coli: not soluble

Sequence: MLDGLFNWAIARNIMNYNPLPTDKPNRPQGFIPYIYKREELKKIIDKSMTYRSFYTTFYPETIRGIIMLTYLWGLRPSETLGIEMADVHLGTDNYIVIKQMKFYNTRIVTFNDRSLLL
- soluble on expression in E. coli: not soluble

Sequence: GEALDYKTPLLKALAAVDKAATEVCQLFDKNVTRVFTNLGWEQEYFLVDSSLYNARPDLCLTGRTLMGHSSAKDQQLEDHYFGSIPPRVTAFMKELEIECHKLGIPAKTRHNEVAPNQFELAPIFENCNLANDHNQLVMDLMKRIARKHHFNVLLHEKPYSSVNGSGKHNNWSLCTDTGINLFAPGKNPKGNMLFLTFLVNVLMMVYKNQDLLRASIMSASNSYRLGANEAPPAILSCFLGSQLSATLDEIVRQVGNEKMTPEEKTTLKLGIGRIPEILLDTTDRNRTSPFAFTGNRFEFRAAGSSSNCAAAMIAINAAMANQLNEFRASVEKLMEEGVGKDEAIFRLLKETIIASEAIRFEGDGYSEEWRQEAARRGLTNICHVPEALMHYVDNQSKSVLIGERIFNETELNSRLEVELEKYTMKVQIEGRVLGDLAINH
- soluble on expression in E. coli: not soluble
